Source: paper PMC2921341, “Interaction of Serum- and Glucocorticoid Regulated Kinase 1 (SGK1) with the WW-Domains of Nedd4-2 Is Required for Epithelial Sodium Channel Regulation” (PLoS ONE, 2010)

Columns and labels:
[1] = target: SGK PY-motif peptide (human); experiment: SPR; BIAcore 2000; peptide immobilised on Sensor Chip CM5 by amine chemistry; isolated WW-domains injected at 20 µl/min in HBS-EP; KD estimated from steady state equilibrium responses
[2] = target: βhENaC PY-motif peptide (human); experiment: as above
[3] = target: βENaC PY motif peptide (Homo sapiens) (UniProt P51168); details: cited from earlier work

Chain of Nedd4 WW2-4 (P46934 767-925): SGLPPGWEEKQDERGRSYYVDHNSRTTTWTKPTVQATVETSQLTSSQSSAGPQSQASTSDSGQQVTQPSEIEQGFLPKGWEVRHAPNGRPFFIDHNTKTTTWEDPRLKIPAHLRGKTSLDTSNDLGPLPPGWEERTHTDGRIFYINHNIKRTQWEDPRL

Kd [1] [µM]	Kd [2] [µM]	Substance	Kd [3] [µM]
250	11.1	Nedd4-2 WW3 (isolated WW-domain, GST removed) (domain or fragment)	–
–	–	Nedd4 WW2-4 (from UniProt P46934)	65
